This note sets out measurements from paper PMC2363545.

This test deals with IGF-II (insulin-like growth factor-II). Description: SPR; BIAcore; who was immobilised, buffer, pH and temperature not stated (abstract P25).
In turn, IGF2R domain 11 (domain or fragment) yielded a Kd of 153 nM, a koff of 0.0138 s⁻¹ and a kon of 90000 M⁻¹ s⁻¹.
The like results for “IGF2R domains 10-12 (domain or fragment)” were, in that order, 346 nM, 0.0086 s⁻¹ and 24800 M⁻¹ s⁻¹.
The like results for “IGF2R domains 10-13 (domain or fragment)” were, in that order, 49.3 nM, 0.00808 s⁻¹ and 164000 M⁻¹ s⁻¹.
The like results for “IGF2R domains 11-12 (domain or fragment)” were, in that order, 134 nM, 0.0082 s⁻¹ and 61300 M⁻¹ s⁻¹.
With “IGF2R domains 11-13 (domain or fragment)”, the Kd came out at 42.6 nM, the koff was found to be 0.00426 s⁻¹ and the kon was 100000 M⁻¹ s⁻¹.
In the same order, the values of “sIGF2R (domains 1-15), soluble insulin-like growth factor 2 receptor (from UniProt P11717 41-2304)” are 9.55 nM, 0.0113 s⁻¹ and 1.18e+06 M⁻¹ s⁻¹.
